Test results taken from the nanobody polyreactivity screen of Harvey et al. (2022).

Experiment: yeast display, Sf9 membrane polyspecificity reagent, FACS + sequencing; frameworks hold sequencing errors
Procedure, shortened: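 A nanobody's polyreactivity label depends on the gate it was sorted from. Yeast display cells were stained with 10% biotinylated, detergent-solubilized Sf9 membrane reagent for 1 hour at 4 °C, enriched on streptavidin microbeads and sorted by FACS. The low and high (top ~1%) gates were set on anti-HA fluorescence for expression and streptavidin fluorescence for reagent binding.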

| Sequence | polyreactivity (PSR sort gate) |
| --- | --- |
| QVQLEESGGGLVQAGGSLRLSCAASGSTFDRNTMGWYRQAPGKERELVAAITWSSGSTYYADSVKGRFTISRDNAKNTVYLQMNSLKPEDTAVYYCAADPIRYRSRHKYGYWGQGTQVTVSS | low polyreactivity |
| QVQLEESGGGLVQAGGSLRLSCAASGSTFPGNALGWYRQAPGKERELVAAITSSGGSTDYADSVKGRFTISRDNAKNTVYLQMNSLKPEDTAVYYCAADGEDSLWTGYDYDYWGQGTQVTVSS | low polyreactivity |
| QVQLEESGGGLVQAGGSLRLSCAASGSTFPGNGMGCYRPEPGKERELVAYISGGGDSTYYADSVKGRFTISRDNAKNTVYLQMNSLKPEETAVYYCAADYRQEPGYTGYYYWGHGTQVTVSS | low polyreactivity |
| QVQLEESGGGLVQAGGSLRLSCAASGSTFPPYEMGWYRQAPGKERELVAAISGSGGSTNYADSVKGRFTISRDHAKNTVYLQMNSLKPEDNAVYRDYWGQGTQVTVSS | low polyreactivity |
| QVQLEESGGGLVQAGGSLRLSCAASGSTFRANAMGWYRQAPGKERELVAAISSGDSTNYADSVKGRFTISRDNAKNTVYLQMNSLKPEDTAVYYCAAVYTYYWWGSYGFWGQGTQVTVSS | low polyreactivity |
| QVQLEESGGGLVQAGGSLRLSCAASGSTFRYYAMGWYRQAHGKERELVAGISSSGGSTYYADSVKGRFTISRDNAKNTVYLQMNSLKPEDTAVYYCNAARGSSRSWAVFADYDYWGQGTQVTVSS | high polyreactivity |
| QVQLEESGGGLVQAGGSLRLSCAASGSTFTGYAMGWYRQAPGKERELVAAISISGGRTFYADSVKVRFTISRDNAKNTVYLQMNSLKPEDTAVYYCAAYLRGSKYSFDYWGQGTQVTVSS | high polyreactivity |
| QVQLEESGGGLVQAGGSLRLSCAASGSTFTLNAMGWYRQAPGKERELVADISWSSGRTYYADSVKGRFTISRDNAKNTVYLQMNSLKPEDTAVYYCATDDFWNVKFYAYYPEFDYWGQGTQVTVSS | low polyreactivity |
| QVQLEESGGGLVQAGGSLRLSCAASGSTFYAYAMGWYRQAPGKERELVAAIDSGGSTYYADSVKGRFTSSRDNAKNTVYLQMNSLKPEDTAVYYCAVRHRYTRAFWGRDYWGQGTQVTVSS | low polyreactivity |
| QVQLEESGGGLVQAGGSLRLSCAASGSTFYLYDMGWYRQAPGKERELVATITSATSTTYADSVKGRFTISRDNATNTVYLQMNSLNPEHTAVYYCNATDVGIITVGYGHGGYYWGQGTQVTVSS | low polyreactivity |
| QVQLEESGGGLVQAGGSLRLSCAASGSTLEYNVMGWYRQAPGKERELVAAFSRSGGITYYADSVKGRFTISRDNAKNTVYLQMNRLKPEDTAVYYCNRLYTRVREYESWGQGTQVTVSS | high polyreactivity |
| QVQLEESGGGLVQAGGSLRLSCAASGSTLGYNVMGWYRQAPGKERELVAAISGDGSTNYADSVKGRFTISRDNAKNTVYLQMNSLKPEDTAVYYCAADTYGGSRDYWGQGTQVTVSS | low polyreactivity |
| QVQLEESGGGLVQAGGSLRLSCAASGYTFGFYTMGWYRQAPGQERALVAGISWSGGSTYYADSVKGPFTISRDNAKNTVYLQMNSLKQEDTAVFYCAAVSTRVLVNYDSWGQGTQVTVSS | high polyreactivity |
| QVQLEESGGGLVQAGGSLRLSCAASGYTFRPYAIGWYRQAAGKERVLVAAISRSGGRTYYADSVKGRFTISRDNAKNTVYLQMNSLIPEDTAVYYCAADRFSLSGFDSWGQGTQGTVSS | low polyreactivity |
| QVQLEESGGGLVQAGGSLRLSCAASGYTFYYYAMGWYRQAPGKERELVAAISRSGGSTYYADSVKGRFTISRDNAKNTVSLQMNSLKQEDTAVYYCAARRLVGAERPGYDYWGQGTQVTVSS | high polyreactivity |
| QVQLEESGGGLVQAGGSLRLSCAATGLIFRTYAMGWYRQAPGKERELVAAISYSGGSTFYADSVNGRFTISRDNAKNTVYLQMNRLKPEDTAVYYCAADSRAKRYYWGQGTQVTVSS | high polyreactivity |
| QVQLEESGGGLVQAGGSLRLSCAAYGIIFRTYDMGWYRQAPGKEREFVAAINSDCSTYYADSVKGRFTFSRDNAKNSVYLQMISVKTEDTAVYYCASDHYYAGAWYYFWGQGTQVTVSS | high polyreactivity |
| QVQLEESGGGLVQAGGSLRLSCAGSGFTFGVYAMGWYRQAPGKERELVAVIRGSGGSTYYADSVKGRFTISRDKAKNTVYLQMNSLKPEDTAGYYCAARRYQYVWSLYNYWGQGTQVTVSS | high polyreactivity |
| QVQLEESGGGLVQAGGSLRLSCPASGIIFGSYAMGWSRQAPGKERELVAAITSDGITNYADSVKGRFTISRDNGKNTVYLPMNSLKPEDTAVYYCAAPGPLGGSDYWGQGTQVTVSS | low polyreactivity |
| QVQLEESGGGLVQAGGSLRLSCPASGSTFGKNAMGWSRQAPGKERELVASITWRGGCTYYADSVKGRITISRDNAKNTVFLQMNSLKPEDTAVYYCATNWHIHIGSYKYYYWGQGTQVTVSS | low polyreactivity |
| QVQLEESGGGLVQAGGSLRLSSAASGRIFGGYAMGWYRQAPGKEREMVAAITQSGGSTYYADSVKGRFTISRDNAKNTVYLQMNSLTAEDTAVYYCNARLARGYWTPGKERPMEYWGQGTQVTVSS | low polyreactivity |
| QVQLEESGGGLVQAGGSLRLSSAASGSTFCWYAMGGYRKEPGKERELVAAISIGGSTKYADSVKGRLTISRDNAKNSVYLQMNRMKPEYSAVYYCAAEVSYHYVPYGYWGQGTQVTVSS | low polyreactivity |

| Sequence | polyreactivity (PSR sort gate) |
| --- | --- |
| QVQLEESGGGLVQAGGSLRLSSAASGSTFYIYVMGWYSQAPGKERELVARISSSGGSTYYADSVKGRFTISRDNAKNSVYLQMNSLKPVDTAVYYCNVDYGAWYDYWGQGTQVTVSS | low polyreactivity |
| QVQLEESGGGLVQAGGSLRLSWAASGSTFSVNAMGWYRQAPGKERELVARITNGGSTYYADSVKGRFTISRDNAKNTVYLQMNSLKPEDTAVYYCAAKLGSYIYHKQRDWGQGTQVTVSS | low polyreactivity |
| QVQLEESGGGLVQAGGSLRLTCAASGITFGTYAMGWYRQAPGKEREFVAGYYADSVKGRFTISRDNAKNTVYLQMNSLKPEDTAVYYCAADYLYHDDVDYWGQGTQVTVSS | low polyreactivity |
| QVQLEESGGGLVQAGGSLRLTCAASGSTFYGYAMGWYRQAPGKERELVAAITRSGGSTYYADSVKVRFTISRDNAKYTVYLQMNSLKPEDTAVYYCNKYIGWYGTGSDYYWGQGTQVNVSS | high polyreactivity |
| QVQLEESGGGLVQAGGTLRLSCAASGSIFYGYAMGWYRKATGKQRDLVAVITDGGGSTYYADSVKGRFTISRDNAKNTVYLQMNSLKPEDTAVYYCAADSWGRYYYSSYSYDYWGQGTQVTVSS | low polyreactivity |
| QVQLEESGGGLVQEGGSLRLSCAASGRIFKWNAMGLYRQAPGKERELVAAISLSGGSTYYADSVKGRFTISRDNAKNTVYLQMNSLKPEDTAVYYCNAYAYHRYGYWGQGTQVTVSS | high polyreactivity |
| QVQLEESGGGLVQEGGSLRLSCAASGSTFVTYAMGWYRPSPGKARELVAAISQSGGSTYYADSVKGRFTISRDNAKNTVYLQMNSLKPEDSAVYYCAAEYWDIAYCFVWWIYDYWGQGTLVTVSS | high polyreactivity |
| QVQLEESGGGLVQVGGSLRLSCAASGLTFRYYAMGWYRQAPGKERELVAAISGSGSTTYYADSVKGRFTISRDNAKNTVYLQMNSLKPEDTAVYYCNARRTGRVGGVVTHYYWGQGTQVTVSS | high polyreactivity |
| QVQLEESGGGVVQAGGSLRLSCAASGGIFNVYVMGWYRQAPGKERELVAAITWRGGSTYYADSVKGRFTISRDNAKNTVYLQMNSLKPEDTAVYYCNADAPFQSSSDGYQVEYWGQGTQVTVSS | low polyreactivity |
| QVQLEESGGGVVQAGGSLRLSCAASGRTLSHYAIGWYRQAPGKERELVAVISWSGTSTYYADSVKGRFTISRDNAKNTVYLQMNSLKPEDTAVYYCNADTYGYYLWTGAVSAGDDYWGQGTQVTVSS | low polyreactivity |
| QVQLEESGGGVVQAGGSLSLSCAASVSTFIFNTMGWYRQATGKERELVASITGDGRTNYADSVKGRFTISRDNAKNTVYLQMNSLKPEDTAVYDCAADGYDQYPLWAPPGDYWGQGTQVTVSS | low polyreactivity |
| QVQLEESGGRLVQAGGSLRLSCAASGFIFGWNAMGWYRQAPGKERELVASIRSSGGTTYADSVKGRFTISRDNAKNTVYLEMNSLKPEDTAVYYCSKRDRYKRYDFWGLGTQVTVSS | low polyreactivity |
| QVQLEESGGRLVQAGGSLRLSCAASGYTFPLYAMGWYRQAPGKERELVADINIGGASTYYADSVKGRFTISRDNAKNTVYLQMNSLKPEDTAVYYCAAEDSWYWDAWFDYWGQGTQVTVSS | low polyreactivity |
| QVQLEESGGVLVQAGGSLRLSCAASGRIFVWYAMGWYRQAPGKERELVAAISSADSTNYADSVKGRFTISRDNAKNTVYLQMNSLKPEDTAVYYCNAEGWPGNVVYGYYYWGQGTQVTVSS | low polyreactivity |
| QVQLEESGGVLVQAGGSLRLTCAAAGSILAYNSMGWYREAPGKERELVAAISWTGRTYYADSVKGRFTISRDNEKNTVYLQMNSLIPEDTAVYYCNARGRQRSRGSQIYDYWGQGTQVTVSS | high polyreactivity |
| QVQLEESGRGLVQAGGSLRISCAASGRIFWGYAMGWYRQAPRKERELVARITSGGDTYYADSVKGRFTISRDNAKNTVYLQMNSLKPEDTAVYYCAAELRPGYRSSYGLIYDYWGQGTQVTVSS | low polyreactivity |
| QVQLEESGRGLVQAGGSLRLSCAASGFIFYRNTMGWYRQAPGKERELVAAISVSGGSTNYADSVKGRFTISRDNAKNTVYLQINSLKPEVTAVYYCAARVRESLVYGGWDDYWGQGTQVTVSS | high polyreactivity |
| QVQLEESGRGLVQAGGSLRLSCAASGSIFGVYTMGWYRPAPRKDRELVAAISASGGRTYYADSVKGRFTISRDTAKITVYLQMNSLKPEDTAVYYCAARASKGYGWYDYWGQGTQVTVSS | high polyreactivity |
| QVQLEESGVGLVQAGGSLRLICAASGFTFYSYAMGWYRQAPGKERELVASISWRGGSTYYADSVKGRFTISRDNAKNTVYLQMNSLKPVDTAVYYCAAQKRGSPVYRRDYWGQGTEVTVSS | high polyreactivity |
| QVQLEESGVGLVQAGGSLRLSCADSGFSFRTNAMGWYRQAPGKERELVAAISRSSGSTYYADSVKGRFTISRDNSKNTVYLQMNSMKPEETAVYYCNAVRYYSRGYTRYDYWGQGSQVTVSS | high polyreactivity |
| QVQLEESRGGLGQAGGSLRLICAASGRTFAYNPMGWSRQAPGKERELVSAITWSGGSTYYADSVKGRFTISRDNAKNTVYLQMNSLKPEDTAVYYCAREWFQYSPYHRFDYWGQGTQVTVSS | high polyreactivity |
